Results published in patent US20260167706A1, “ANTI-ADRENOMEDULLIN (ADM) ANTIBODY OR ANTI-ADM ANTIBODY FRAGMENT OR ANTI-ADM NON-IG SCAFFOLD FOR USE IN THERAPY OR PREVENTION OF SHOCK” (ADRENOMED AG, priority 2022, published 2026).

How the values were obtained:
[1] = target: human recombinant adrenomedullin receptor (CRLR + RAMP3) (human)
[2] = target: human recombinant adrenomedullin receptor (CRLR + RAMP3) (human); remark: listed apart in the source

IC50 (read off the curve); cAMP, % inhibition, 0.67 nM mADM as agonist [1]: 2 µM
IC50 (read off the curve); cAMP, % inhibition, 5.63 nM hADM as agonist [2]: 0.2 µM
Substance: human ADM 22-52 (from UniProt P35318) (peptide)
